The RNAGym collection of RNA variant scans (doi:10.7554/elife.80360)

B1: CPEB3 Ribozyme (parent)
chain: GGGGGCCACAGCAGAAGCGUUCACGUCGCGGCCCCUGUCAGAUUCUGGUGAAUCUGCGAAUUCUGCUGU

Variants of: B1
Assay: self-cleavage, relative activity (ratio to wild type); higher = more cleavage; co-transcriptional

| Variant | self-cleavage |
| --- | --- |
| GGUGGCCACAGCAGAAGCGUUCACGUCGCGGCCCCUGUCAGAUUCUGGUGAAUCUGCGAAUCCUGCUGU | 0.0865 |
| GGUGGCCACAGCAGAAGCGUUCACGUCGCGGCCCCUGUCAGAUUCUGCUGAAUCUGCGAAUUCUGCUGU | 0.151 |
| GGUGGCCACAGCAGAAGCGUUCACGUCGCGGCCCCUGUCAGAUUCUGUUGAAUCUGCGAAUUCUGCUGU | 0.135 |
| GGUUGCCACAGCAGAAGCGUUCACGUCGCGGCCCCUGUCAGAUUCUGGUGAAUCUGCGAAUUCUGCUGU | 0.0247 |
| GGUGGCCACAGCAGAAGCGGUCACGUCGCGGCCCCUGUCAGAUUCUGGUGAAUCUGCGAAUUCUGCUGU | 0.0082 |
| GGUGGCCACAGCAGAAGCGCUCACGUCGCGGCCCCUGUCAGAUUCUGGUGAAUCUGCGAAUUCUGCUGU | 0.0468 |
| GGCGGCCACAGCAGAAGCGUUCACGUCGCGGCCCCUGUCAGAUUCUGGUGAAUCUGCGAAUUCUGCCGU | 0.218 |
| GGUGGCCACAGCAGAAGCGUUCACGUCGCGGCCCCUGUCAGAUUCUGGUGAAUCUGCGGAUUCUGCUGU | 0.0478 |
| GGUGGCCACAGCAGAAGCGUUCACGUCGCGGCCCCUGUCAGAUUCUGGUGAAUCGGCGAAUUCUGCUGU | 0.0975 |
| GGUGGCCACAGCAGAAGCGUUCACGUCGCGGCCCCUGUCAGAUUCUGGUGAAUCAGCGAAUUCUGCUGU | 0.0915 |
| GGUGGCCACAGCAGAAGCGUUCACGUCGCGGCCCCUGUCAGAUUCUGGUGAAUCUACGAAUUCUGCUGU | 0.035 |
| GGUGGCCACAGCAAAAGCGUUCACGUCGCGGCCCCUGUCAGAUUCUGGUGAAUCUGCGAAUUCUGCUGU | 0.0323 |
| GGUGGCGACAGCAGAAGCGUUCACGUCGCGGCCCCUGUCAGAUUCUGGUGAAUCUGCGAAUUCUGCUGU | 0.0286 |
| GGCGGCCACAGCAGAAGCGUUCACGUCGCGGCCCCUGUCAGAUUCUGGUGAAUCUGCGAAUUCUGCUGA | 0.209 |
| GGUGGCCACAGCAGAAGCGUUCACGUCGCGGCCCCUGUCAGAUUCUGGUGAAUCUGGGAAUUCUGCUGU | 0.0443 |
| GGUGGCCACAGCAGAAGCGUUCACGUCGCGGCCCCUGUCAGAUUCUGGUGAAUCUGCGAAGUCUGCUGU | 0.114 |
| GGUGGCCACAGCAGAAGCGUUCACGUCGCGGCCGCUGUCAGAUUCUGGUGAAUCUGCGAAUUCUGCUGU | 0.643 |
| GGUGGCCACAGCAGAAGCGUUCACGACGCGGCCCCUGUCAGAUUCUGGUGAAUCUGCGAAUUCUGCUGU | 0.0295 |
| GGUGGCCACAGCAGAAGCGUUCACGUCGCGGCCCCUGUCAGAUUCUGGUGAAGCUGCGAAUUCUGCUGU | 0.0759 |
| GGUGGCCACAGCAGAAGCGUUCACGUCGCGGCCCCUGUCAGAUUCAGGUGAAUCUGCGAAUUCUGCUGU | 0.162 |

| Variant | self-cleavage |
| --- | --- |
| GGUGGCCACAGCAGAAGCGUUCACGUCGCGGCCCCUGUCAGAUUCUGGUGAGUCUGCGAAUUCUGCUGU | 0.122 |
| GGUGGCCACAGCAGAAGCGUUCACGUCGCGGCCCCUGUCAGAUUCUGGUGACUCUGCGAAUUCUGCUGU | 0.0886 |
| GGUGGCCACAGCAGAAGCGUUCACGUCGCGGCCCCUGUCAGAUUCUGGUGAUUCUGCGAAUUCUGCUGU | 0.142 |
| GGUGGCCACAGCAGAAGCGUUCACGUCGCGGCCCCUGUCAGAUUCUGGUGAAUCUGCUAAUUCUGCUGU | 0.189 |
| GGUGGCCACAGCAGAAGCGUUCACGUCGCGGCCCCUGUCAGAUUCUGGUGAAUCUGCGAAUUAUGCUGU | 0.0888 |
| GGUGGCCACAGCAGAAGCGUUCACGUCGCGGCCCCUGUCAGAUUCUGGUGAAUCUGCGAAUUGUGCUGU | 0.1 |
| GGUGGCCACGGCAGAAGCGUUCACGUCGCGGCCCCUGUCAGAUUCUGGUGAAUCUGCGAAUUCUGCUGU | 0.158 |
| GGUGGCCACAGUAGAAGCGUUCACGUCGCGGCCCCUGUCAGAUUCUGGUGAAUCUGCGAAUUCUGCUGU | 0.169 |
| GGUGGCCACAGGAGAAGCGUUCACGUCGCGGCCCCUGUCAGAUUCUGGUGAAUCUGCGAAUUCUGCUGU | 0.0607 |
| GGGAGCCACUGCAGAAGCGUUCACGUCGCGGCCCCUGUCAGAUUCUGGUGAAUCUGCGAAUUCUGCUGU | 0.941 |
| GGUGGCCACAACAGAAGCGUUCACGUCGCGGCCCCUGUCAGAUUCUGGUGAAUCUGCGAAUUCUGCUGU | 0.125 |
| GGUGGCCACAUCAGAAGCGUUCACGUCGCGGCCCCUGUCAGAUUCUGGUGAAUCUGCGAAUUCUGCUGU | 0.0744 |
| GGUGGCCACAGCAGAAGCGUUCACGUCACGGCCCCUGUCAGAUUCUGGUGAAUCUGCGAAUUCUGCUGU | 0.0444 |
| GGUGGCCACAGCAGAAGCGUUCACGUCGGGGCCCCUGUCAGAUUCUGGUGAAUCUGCGAAUUCUGCUGU | 0.0557 |
| GGUGGCCACAGCAGAAGCGUUCACGUCGAGGCCCCUGUCAGAUUCUGGUGAAUCUGCGAAUUCUGCUGU | 0.0168 |
| GGUGUCCACAGCAGAAGCGUUCACGUCGCGGCCCCUGUCAGAUUCUGGUGAAUCUGCGAAUUCUGCUGU | 0.0488 |
| GGUGGCCACAGCAGAAGCGUUCCCGUCGCGGCCCCUGUCAGAUUCUGGUGAAUCUGCGAAUUCUGCUGU | 0.135 |
| GGUGGCCACAGCAGAAGCGUUCUCGUCGCGGCCCCUGUCAGAUUCUGGUGAAUCUGCGAAUUCUGCUGU | 0.344 |
| GGUGGCCACAGCAGAAGCGUUCACGUCGCGCCCCCUGUCAGAUUCUGGUGAAUCUGCGAAUUCUGCUGU | 0.0621 |
